# Patent publication US9283300B2, “Use of midkine protein and the protein-containing medical device” (GENERAL REGENERATIVES, LTD, priority 2009, dated 2016)
# Assays:
# [1] = test system: cartilage of normal rat (articular, ear, tracheal, intervertebral disc); test: rhMK effect on cartilage thickness of normal rats (subcutaneous injection, histology); format: in vivo; details: rhMK 175 μg/kg s.c. daily for a week
# Protocol: Method. 8-weeks-old male C57BL/6J mice were injected subcutaneously with recombinant human MK (rhMK) or control saline. The injection volume was 0.5 ml, given daily for a week. The mice were grouped (3 animals per group): Saline (NS) group, rhMK groups injected with various dosages at 10, 33, 100, 300, 900 μg/kg. Rats were injected with saline or rhMK (175 μg/kg) daily for a week. Rabbits were injected with saline or rhMK (92.5 μg/kg) daily for two week. Histological observation and evaluation. The knee joint tissues of all mice and rats were fixed in 10% (v/v) formalin for 1 day, the tissues of rabbits were fixed for 2 days. The fixed tissues were subjected to demineralization in liquid (7% AlCl3.6H2O, 5% methanoic acid, 8.5% HCl) 4 days for mouse and rats issues, and 10 days for rabbit tissues. The demineralized tissues were subjected to dehydration by gradient ethanol, and treated for transparency by xylene, and embedded in wax. Tissue sections were prepared by the paraffin slicing machine (Laica), and stained with hemotoxylin/eosin or Safranine O/fast green staining. Slides were observed under microscope and analyzed. The thickness of cartilage tissues were measured by the vernier caliper on microscope. Three tissue sections from each sample were measured and analyzed statisticaly. The distance between surface of cartilage to subchondral tide line was measured at ½ position of femoral condyle to denote the thickness of knee-joint cartilage. The thickness of cartilage at central part of ears was measured to denote the thickness of ear elastic cartilage. The distance between out surface of annulus to nucleus of the intervertebral disc was measured to denote the thickness of thoracic intervertebral disc (T2-3). To verify the results of rhMk in mice, we performed the same experiments in vivo using commonly used laboratory animals, rat and rabbit. Rats were injected subcutaneously with rhMK at 175 μg/kg/day for one week, and rabbits was injected subcutaneously 92.5 ug/kg/day for two weeks. […] The injection dose of rhMK: mice was injected subcutaneously 300 μg/kg daily for a week; rats were injected 175 μg/kg daily for a week; and New Zealand rabbits was injected 92.5 μg/kg daily for two weeks. Three animals per group were analyzed.
# [2] = test system: rat primary auricular (ear elastic cartilage) chondrocyte; test: MTT proliferation assay, primary chondrocytes in monolayer; format: cell-based; details: for light absorbance at 490 nm in MTT assay: Auricular chondrocyte, 48 h, mean ± SD
# Protocol: (§1) 1. Preparation of primary chondrocyte. The 8-week-old male SD rats were sacrificed under sterile conditions. The articular cartilage, fibrocartilage and elastic cartilage tissue were isolated from the femur joints, meniscus and outer ear respectively using a scalpel. The isolated cartilage were cut into small pieces, washed twice with phosphate buffered saline (PBS), and digested with trypsin (0.25% (w/v) trypsin/0.02% (w/v) EDTA) at 37° C. for 30 min. The articular cartilage and elastic cartilage were further digested with 0.2% type II collagenase for additional 16 h, and the fibrocartilage were further digested with 0.15% type I collagenase for additional 16 h. After digestion, three chondrocytes were passed through 100 μm filter (Falcon, USA) into 15 ml centrifuge tubes, centrifuged at room temperature at 2000 rpm for 5 min. Cells were resuspended in DMEM containing 10% FBS (fetal bovine serum). Trypan blue staining of the freshly isolated cells was used to monitor the percentage of live cells under the microscope. When the number of live cells is more than 95%, it was used for subsequent experiments.
# (§2) 2. MTT assay. Three types of primary chondrocytes were suspended at a density of 5×10^4 cells/ml in DMEM containing 10% FBS. Cells were seeded into a 96-well plate (100 μl per well) and cultured at 37° C. under 5% CO2 for 48 h. The cells were washed with serum-free DMEM medium once. Different concentrations of rhMK (0.5, 1.0, 3.0, 5.0, 9.0 μg/ml) in DMEM (containing 0.5% FBS) were added to each well and the cells were cultured for additional 48 h. After incubation, the medium was replaced with 100 μl serum-free DMEM medium and 20 μl MTT solution (0.5 mg/ml, in PBS), incubated at 37° C. under 5% CO2 for 4 h. After removing the liquid, 120 μl DMSO was added to dissolve the MTT crystals by shaking for 1 min on a micro-plate oscillator. Light absorbance at 490 nm was measured using a microplate reader (BIO-TEK, USA).
# [3] = test system: rat primary fibrochondrocyte; test: as above; format: cell-based; details: for light absorbance at 490 nm in MTT assay: Fibrochondrocyte, 48 h, mean ± SD
# Protocol: as §1, §2
molecule,measurement,setting,value
"rhMK: recombinant human midkine mature protein (SEQ ID NO.1) expressed in E. coli and purified by ion-exchange chromatography (protein, listed as Homo sapiens) MKKKDKVKKGGPGSECAEWAWGPCTPSSKDCGVGFREGTCGAQTQRIRCRVPCNWKKEFGADCKYKFENWGACDGGTGTKVRQGTLKKARYNAQCQETIRVTKPCTPKTKAKAKAKKGKGKD","Cartilage thickness, Ear",[1],107 ± 3.4 µm
same,"Cartilage thickness, Femoral condyle",[1],263 ± 54.4 µm
same,"Cartilage thickness, Intervertbral disc (T2-3)",[1],659 ± 40.8 µm
same,"Cartilage thickness, Trachea",[1],246 ± 9.1 µm
same,light absorbance at 490 nm in MTT assay,[2]; rhMK 0.5 μg/ml,0.52 ± 0.05
same,light absorbance at 490 nm in MTT assay,[2]; rhMK 1.0 μg/ml,0.54 ± 0.02
same,light absorbance at 490 nm in MTT assay,[2]; rhMK 3.0 μg/ml,0.56 ± 0.01
same,light absorbance at 490 nm in MTT assay,[2]; rhMK 5.0 μg/ml,0.56 ± 0.02
same,light absorbance at 490 nm in MTT assay,[2]; rhMK 9.0 μg/ml,0.56 ± 0.02
same,"lowest effective dose of rhMK (proliferation, MTT)","[2]; ear elastic cartilage cells, monolayer",0.5 µg/mL
same,light absorbance at 490 nm in MTT assay,[3]; rhMK 0.5 μg/ml,0.42 ± 0.02
same,light absorbance at 490 nm in MTT assay,[3]; rhMK 1.0 μg/ml,0.43 ± 0.02
same,light absorbance at 490 nm in MTT assay,[3]; rhMK 3.0 μg/ml,0.47 ± 0.00
same,light absorbance at 490 nm in MTT assay,[3]; rhMK 5.0 μg/ml,0.45 ± 0.00
same,light absorbance at 490 nm in MTT assay,[3]; rhMK 9.0 μg/ml,0.45 ± 0.00
same,"lowest effective dose of rhMK (proliferation, MTT)","[3]; fibrochondrocyte, monolayer",3 µg/mL
